According to patent US20200270339A1 (CEPHALON, published 2020):
Numbering of substitutions follows the chain as printed. Values joined by “and” are separate entries in the source; they are usually repeats but may differ in a detail not shown here. Equal entries are not always repeated. Where two headings read alike, the source gives them in different places.

Tests used:
[1] = target: T1, human IL-15 complexed with the IL-15 Receptor-alpha (human, UniProt P40933 49-162); assay: cell-based or functional assay
Target sequence in this assay (P40933 49-162 limits assumed, chain 1 of 2, one chain of several): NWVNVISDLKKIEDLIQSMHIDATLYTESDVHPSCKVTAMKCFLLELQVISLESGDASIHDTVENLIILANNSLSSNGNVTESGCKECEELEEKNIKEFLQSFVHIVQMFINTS

[2] = target: T1, human IL-15 complexed with the IL-15 …; assay: cell-based or functional assay; remark: listed apart in the source
Target sequence in this assay (P40933 49-162 limits assumed, one chain of several): as the sequence (P40933 49-162 limits assumed, chain 1 of 2, one chain of several) above

[3] = target: T1, human IL-15 complexed with the IL-15 …; assay: cell-based or functional assay; remark: listed apart in the source
Target sequence in this assay (P40933 49-162 limits assumed, one chain of several): as the sequence (P40933 49-162 limits assumed, chain 1 of 2, one chain of several) above

[4] = target: T1, human IL-15 complexed with the IL-15 …; assay: SPR
Target sequence in this assay (P40933 49-162 limits assumed, one chain of several): as the sequence (P40933 49-162 limits assumed, chain 1 of 2, one chain of several) above

IL-4 = target: T2, IL-4 (UniProt P05112 25-153); assay: SPR, antibody captured on Protein A chip
T2 sequence (looked up): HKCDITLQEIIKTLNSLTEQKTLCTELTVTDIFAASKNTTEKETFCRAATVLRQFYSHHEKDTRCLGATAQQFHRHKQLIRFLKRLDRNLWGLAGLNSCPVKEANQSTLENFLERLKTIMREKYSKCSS

IL-9 = IL-9 (UniProt P15248 19-144); assay: SPR, antibody captured on Protein A chip
Sequence of IL-9 (P15248 19-144 limits assumed): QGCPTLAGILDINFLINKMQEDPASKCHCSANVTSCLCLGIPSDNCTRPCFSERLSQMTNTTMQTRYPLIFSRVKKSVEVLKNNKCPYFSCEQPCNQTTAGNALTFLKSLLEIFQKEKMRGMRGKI

[5] = target: T3, uncomplexed IL-15 Receptor α (human); assay: SPR, antibody captured on Protein A chip
T3 construct: also called IL-15Rα; IL15Rα
T3 chain: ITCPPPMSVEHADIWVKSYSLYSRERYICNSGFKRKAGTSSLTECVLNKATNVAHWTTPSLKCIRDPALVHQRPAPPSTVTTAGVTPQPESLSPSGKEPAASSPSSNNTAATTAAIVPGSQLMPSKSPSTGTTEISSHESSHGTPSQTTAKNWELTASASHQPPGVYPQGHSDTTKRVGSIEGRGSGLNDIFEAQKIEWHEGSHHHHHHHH

IL-7 = target: T4, IL-7 (UniProt P13232 26-177); assay: SPR, antibody captured on Protein A chip
T4 sequence (looked up): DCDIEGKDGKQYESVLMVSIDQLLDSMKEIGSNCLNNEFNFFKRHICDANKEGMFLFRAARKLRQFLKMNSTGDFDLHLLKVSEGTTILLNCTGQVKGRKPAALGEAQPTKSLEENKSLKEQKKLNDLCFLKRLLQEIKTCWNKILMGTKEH

IL-2 = IL-2 (UniProt P60568 21-153); assay: SPR, antibody captured on Protein A chip
Sequence of IL-2 (P60568 21-153 limits assumed): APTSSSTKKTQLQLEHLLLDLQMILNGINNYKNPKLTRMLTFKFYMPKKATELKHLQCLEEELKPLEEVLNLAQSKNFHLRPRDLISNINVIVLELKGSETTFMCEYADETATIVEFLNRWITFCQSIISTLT

IL-21 = IL-21 (UniProt Q9HBE4 30-162, limits assumed); assay: SPR, antibody captured on Protein A chip
Sequence of IL-21 (Q9HBE4 30-162 limits assumed): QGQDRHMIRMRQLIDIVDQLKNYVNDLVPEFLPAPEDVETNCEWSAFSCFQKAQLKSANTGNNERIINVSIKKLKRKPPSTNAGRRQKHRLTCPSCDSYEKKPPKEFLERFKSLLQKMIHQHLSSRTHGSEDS

[6] = target: T1, human IL-15 complexed with the IL-15 …; assay: cell-based or functional assay; remark: listed apart in the source
Target sequence in this assay (P40933 49-162 limits assumed, one chain of several): as the sequence (P40933 49-162 limits assumed, chain 1 of 2, one chain of several) above

[7] = target: T1, human IL-15 complexed with the IL-15 …; assay: SPR; remark: listed apart in the source
Target sequence in this assay (P40933 49-162 limits assumed, one chain of several): as the sequence (P40933 49-162 limits assumed, chain 1 of 2, one chain of several) above

[8] = target: T1, human IL-15 complexed with the IL-15 …; assay: SPR; remark: listed apart in the source
Target sequence in this assay (P40933 49-162 limits assumed, one chain of several): as the sequence (P40933 49-162 limits assumed, chain 1 of 2, one chain of several) above

[9] = target: T1, human IL-15 complexed with the IL-15 …; assay: SPR; remark: listed apart in the source
[10] = target: T1, human IL-15 complexed with the IL-15 …; assay: SPR; remark: listed apart in the source
[11] = target: T1, human IL-15 complexed with the IL-15 …; assay: SPR; remark: listed apart in the source
[12] = target: T1, human IL-15 complexed with the IL-15 …; assay: SPR; remark: listed apart in the source
[13] = target: T1, human IL-15 complexed with the IL-15 …; assay: SPR; remark: listed apart in the source

B1: Antibody 11 (antibody, V domains shown)
VH: QVQLQESGPGLVKPSGTLSLTCAVSGGSISSSNWWSWVRQPPGKGLEWIGEIYHYGYTNYNPSLKSRVTISVDKSKNQFSLKLISVTAADTAVYYCAREGIGWPSFDYWGQGTLVTVSS
VL: SSELTQDPAASVALGQTVRITCQGDTLRNYYASWYQQKPGQAPILVIYGKNNRPSGIPDRFSGSSSGNTASLTITGAQAEDEADYYCNSRDSSGKNLVFGGGTKLTVLG
IC 50 (NK-92) in pM [1]: 6.3 pM
fold improvement of IC50 in the NK-92 cell proliferation assay compared to Antibody 4 [2]: ≥ 10 fold
NK-92 cell proliferation assay, potency (IC50) [3]: 7.4 pM

B2: Antibody 70b (antibody, human IgG1, lambda)
heavy: QVQLQESGPGLVKPSGTLSLTCAVSGGSISSSNWWSWVRQPPGKGLEWIGEIYHYGYTNYNPSLKSRVTISVDKSKNQFSLKLSSVTAADTAVYYCAREGIGWPSFDYWGQGTLVTVSSASTKGPSVFPLAPSSKSTSGGTAALGCLVKDYFPEPVTVSWNSGALTSGVHTFPAVLQSSGLYSLSSVVTVPSSSLGTQTYICNVNHKPSNTKVDKKVEPKSCDKTHTCPPCPAPELLGGPSVFLFPPKPKDTLYITREPEVTCVVVDVSHEDPEVKFNWYVDGVEVHNAKTKPREEQYNSTYRVVSVLTVLHQDWLNGKEYKCKVSNKALPAPIEKTISKAKGQPREPQVYTLPPSRDELTKNQVSLTCLVKGFYPSDIAVEWESNGQPENNYKTTPPVLDSDGSFFLYSKLTVDKSRWQQGNVFSCSVMHEALHNHYTQKSLSLSPG
light: SSELTQDPAASVALGQTVRITCQGDTLRSYYASWYQQKPGQAPILVIYGKNNRPSGIPDRFSGSSSGNTASLTITGAQAEDEADYYCNSRDLSGKNLVFGGGTKLTVLGQPKAAPSVTLFPPSSEELQANKATLVCLISDFYPGAVTVAWKADSSPVKAGVETTTPSKQSNNKYAASSYLSLTPEQWKSHRSYSCQVTHEGSTVEKTVAPTECS
Kd [4]: 0.154 nM and 0.157 nM
koff [4]: 3.92e-05 s⁻¹ and 3.89e-05 s⁻¹
kon [4]: 249000 M⁻¹ s⁻¹ and 254000 M⁻¹ s⁻¹
binding result (IL-4): no binding (tested: 10 µg/mL)
binding result (IL-9): no binding (tested: 10 µg/mL)
binding result [5]: no binding (tested: 10 µg/mL)
binding result (IL-7): no binding (tested: 10 µg/mL)
binding result (IL-2): no binding (tested: 10 µg/mL)
binding result (IL-21): no binding (tested: 10 µg/mL)
Max IC50 (pM), NK-92 proliferation assay [6]: 16.6 pM
Mean IC50 (pM), NK-92 proliferation assay [6]: 13.3 pM
Min IC50 (pM), NK-92 proliferation assay [6]: 10.6 pM

B3: Antibody 70e (antibody, human IgG4 S228P, lambda)
heavy: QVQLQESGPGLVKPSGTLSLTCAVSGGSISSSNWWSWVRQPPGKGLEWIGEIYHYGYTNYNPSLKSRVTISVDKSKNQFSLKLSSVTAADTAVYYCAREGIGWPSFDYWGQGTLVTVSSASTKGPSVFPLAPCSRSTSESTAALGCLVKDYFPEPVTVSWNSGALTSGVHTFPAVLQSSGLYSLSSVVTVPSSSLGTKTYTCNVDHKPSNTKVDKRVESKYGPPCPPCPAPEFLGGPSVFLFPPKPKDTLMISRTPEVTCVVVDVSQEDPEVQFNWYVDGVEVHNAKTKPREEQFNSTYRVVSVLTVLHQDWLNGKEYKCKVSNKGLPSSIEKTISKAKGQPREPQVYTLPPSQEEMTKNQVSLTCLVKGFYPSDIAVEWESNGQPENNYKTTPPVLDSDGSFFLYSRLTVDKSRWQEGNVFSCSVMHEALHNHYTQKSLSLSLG
light: B2 light
Kd [4]: 0.174 nM and 0.193 nM
koff [4]: 4.31e-05 s⁻¹ and 4.58e-05 s⁻¹
kon [4]: 237000 M⁻¹ s⁻¹ and 247000 M⁻¹ s⁻¹
binding result (IL-4): no binding (tested: 10 µg/mL)
binding result (IL-9): no binding (tested: 10 µg/mL)
binding result [5]: no binding (tested: 10 µg/mL)
binding result (IL-7): no binding (tested: 10 µg/mL)
binding result (IL-2): no binding (tested: 10 µg/mL)
binding result (IL-21): no binding (tested: 10 µg/mL)
Max IC50 (pM), NK-92 proliferation assay [6]: 20.9 pM
Mean IC50 (pM), NK-92 proliferation assay [6]: 15.7 pM
Min IC50 (pM), NK-92 proliferation assay [6]: 11.7 pM

B4: VL_K051A (antibody, V domains shown)
VH: B1 VH with Y55S, Y57N
VL: SSELTQDPAASVALGQTVRITCQGDTLRNYYASWYQQKPGQAPILVIYGANNRPSGIPDRFSGSSSGNTASLTITGAQAEDEADYYCNSRDSSGKNLVFGGGTKLTVL
notes: Antibody 4 with one substitution; also called ANTIBODY 30
Kd [7]: 0.942 nM

B5: VH_T057D (antibody, V domains shown)
VH: B1 VH with Y55S, Y57N, T58D
VL: B4 VL with A50K
notes: Antibody 4 with one substitution; also called ANTIBODY 25
Kd [8]: 0.64 nM

B6: VL_D092S (antibody, V domains shown)
VH: B1 VH with Y55S, Y57N
VL: B4 VL with A50K, D91S
notes: Antibody 4 with one substitution; also called ANTIBODY 16
Kd [9]: 2.15 nM

B7: VL_G050S (antibody, V domains shown)
VH: B1 VH with Y55S, Y57N
VL: B4 VL with G49S, A50K
notes: Antibody 4 with one substitution; also called ANTIBODY 29
Kd [10]: 1.58 nM

B8: VL_K051H (antibody, V domains shown)
VH: B1 VH with Y55S, Y57N
VL: B4 VL with A50H
notes: Antibody 4 with one substitution; also called ANTIBODY 31
Kd [11]: 0.73 nM

B9: VL_K051L (antibody, V domains shown)
VH: B1 VH with Y55S, Y57N
VL: B4 VL with A50L
notes: Antibody 4 with one substitution; also called ANTIBODY 32
Kd [7]: 0.865 nM

B10: VL_N030S (antibody, V domains shown)
VH: B1 VH with Y55S, Y57N
VL: B4 VL with N29S, A50K
notes: Antibody 4 with one substitution; also called ANTIBODY 51
Kd [12]: 2.41 nM

B11: VL_R054L (antibody, V domains shown)
VH: B1 VH with Y55S, Y57N
VL: B4 VL with A50K, R53L
notes: Antibody 4 with one substitution; also called ANTIBODY 33
Kd [13]: 0.845 nM

B12: VL_R054Q (antibody, V domains shown)
VH: B1 VH with Y55S, Y57N
VL: B4 VL with A50K, R53Q
notes: Antibody 4 with one substitution; also called ANTIBODY 34
Kd [13]: 0.892 nM

B13: VL_R054Y (antibody, V domains shown)
VH: B1 VH with Y55S, Y57N
VL: B4 VL with A50K, R53Y
notes: Antibody 4 with one substitution; also called ANTIBODY 35
Kd [13]: 0.784 nM

B14: VH_N058Q (antibody, V domains shown)
VH: B1 VH with Y55S, Y57N, N59Q
VL: B4 VL with A50K
Kd [8]: 0.765 nM
